For orientation: EC50 means the midpoint of the concentration-response curve. The low end stands for higher potency in that assay, the high end for lower potency in that assay.

The results in this text go back to patent CN110623921A (BEIJING DONGFANG BIOTECH CO LTD, dated 2019).

The target of experiment [1] is T1, CD19 (细胞表面CD19, Raji细胞) (UniProt P15391 20-556, limits assumed).
T1 sequence (looked up): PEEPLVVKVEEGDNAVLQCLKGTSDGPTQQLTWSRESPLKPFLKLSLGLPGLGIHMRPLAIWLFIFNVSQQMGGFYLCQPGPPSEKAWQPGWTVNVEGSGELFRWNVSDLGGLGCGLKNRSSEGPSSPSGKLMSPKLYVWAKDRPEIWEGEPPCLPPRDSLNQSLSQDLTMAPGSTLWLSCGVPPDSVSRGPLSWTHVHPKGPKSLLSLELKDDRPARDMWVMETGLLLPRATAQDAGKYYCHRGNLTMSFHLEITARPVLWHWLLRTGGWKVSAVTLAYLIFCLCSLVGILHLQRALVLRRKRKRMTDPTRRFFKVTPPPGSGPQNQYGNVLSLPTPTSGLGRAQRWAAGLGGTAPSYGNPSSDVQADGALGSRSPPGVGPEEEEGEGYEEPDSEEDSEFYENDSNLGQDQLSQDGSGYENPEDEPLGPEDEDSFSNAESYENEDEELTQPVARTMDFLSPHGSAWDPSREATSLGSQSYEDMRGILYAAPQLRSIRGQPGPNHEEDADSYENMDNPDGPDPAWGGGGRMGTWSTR
Description: cell-based or functional assay.

Another experiment deals with T2, CD3 (细胞表面CD3, Jurkat细胞).
T2 construct: whole, on cells; also called CD3抗原; CD3阳性的Jurkat细胞
T2 sequence (P07766 23-207): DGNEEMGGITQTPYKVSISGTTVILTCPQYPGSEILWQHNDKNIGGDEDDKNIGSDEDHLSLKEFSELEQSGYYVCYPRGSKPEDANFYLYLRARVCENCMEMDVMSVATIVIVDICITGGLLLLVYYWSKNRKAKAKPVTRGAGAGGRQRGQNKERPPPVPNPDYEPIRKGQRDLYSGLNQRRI
Description: flow cytometry on Jurkat cells, Alexa488 anti-human IgG-Fc, MFI fitted in GraphPad Prism.

Experiment [2] concerns the target T1, CD19 (细胞表面CD19, Raji细胞). Description: flow cytometry on Raji cells, Alexa488 anti-human IgG-Fc, MFI fitted in GraphPad Prism. (In flow cytometry, cells or beads pass a laser one at a time.)

B1: 抗CD3和抗CD19双特异性抗体JY039 (bispecific antibody)
chain 1: not shown
chain 2: not shown
chain 3: QVQLQQSGAELVRPGSSVKISCKASGYAFSSYWMNWVKQRPGQGLEWIGQIWPGDGDTNYNGKFKGKATLTADESSSTAYMQLSSLASEDSAVYFCARRETTTVGRYYYAMDYWGQGTTVTVSS
chain 4: DIQLTQSPASLAVSLGQRATISCKASQSVDYDGDSYLNWYQQIPGQPPKLLIYDASNLVSGIPPRFSGSGSGTDFTLNIHPVEKVDAATYHCQQSTEDPWTFGGGTKLEIK
Take B1: the “EC50 of PBMC-mediated killing of Raji cells (LDH release)” value in the experiment with CD19 (细胞表面CD19, Raji细胞) [1] worked out at 0.00126 nM. Also, the EC50 with CD3 (细胞表面CD3, Jurkat细胞) is 21.6 nM; in the experiment with CD19 (细胞表面CD19, Raji细胞) [2] it was 1.02 nM.

B2: 抗CD19的单克隆抗体 (JY039的抗CD19序列构建) (antibody, V domains shown)
VH: QVQLQQSGAELVRPGSSVKISCKASGYAFSSYWMNWVKQRPGQGLEWIGQIWPGDGDTNYNGKFKGKATLTADESSSTAYMQLSSLASEDSAVYFCARRETTTVGRYYYAMDYWGQGTTVTVSS
VL: DIQLTQSPASLAVSLGQRATISCKASQSVDYDGDSYLNWYQQIPGQPPKLLIYDASNLVSGIPPRFSGSGSGTDFTLNIHPVEKVDAATYHCQQSTEDPWTFGGGTKLEIK
notes: also called AntiCD19McAb; 抗CD19单克隆抗体
On to B2, for which the “EC50 of PBMC-mediated killing of Raji cells (LDH release)” value in the experiment with CD19 (细胞表面CD19, Raji细胞) [1] turned out to be 0.222 nM. This molecule also registered an EC50 with CD19 (细胞表面CD19, Raji细胞) [2] of 0.191 nM.
